Target: Vibrio cholerae ApbE (alternative pyrimidine biosynthesis protein), recombinant, without the leader sequence (Vibrio cholerae) (UniProt A5F5Y3)
Sequence (A5F5Y3 18-334): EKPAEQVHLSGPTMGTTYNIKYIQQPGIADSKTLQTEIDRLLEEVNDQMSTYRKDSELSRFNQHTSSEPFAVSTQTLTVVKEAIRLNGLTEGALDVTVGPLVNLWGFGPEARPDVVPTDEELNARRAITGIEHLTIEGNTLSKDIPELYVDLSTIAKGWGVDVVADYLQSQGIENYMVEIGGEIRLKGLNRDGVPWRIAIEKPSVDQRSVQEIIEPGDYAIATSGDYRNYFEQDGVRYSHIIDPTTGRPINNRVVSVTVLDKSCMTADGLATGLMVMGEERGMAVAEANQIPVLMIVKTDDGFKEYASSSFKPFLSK

“Vibrio cholerae NqrC (subunit C of Na+-NQR), soluble, without the N-terminal transmembrane helix (domain or fragment)” was tested, and the Km for NqrC in the steady-state flavin transfer activity of ApbE (NqrC varied, FAD 1 mM, pH 9.0) was over 100 μM.

From article PMC5655446
